Measured values from the supplement of paper PMC7877785.
± gives the uncertainty stated by the source.

Experiment: self-splicing fitness, log relative to wild type (ln ratio); higher = more splicing; Tetrahymena group I intron in knt gene, E. coli kanamycin selection, DiMSum; sequences stand for … in CUCUCU…GGAGGGAAAAGUUAUCAGGCAUGCACCUGGUAGCUAGUCUUUAAACCAAUAGAUUGCAUCGGUUUAAAAGGCAAGACCGUCAAAUUGCGGGAAAGGGGUCAACAGCCGUUCAGUACCAAGUCUCAGGGGAAACUUUGAGAUGGCCUUGCAAAGGGUAUGGUAAUAAGCUGACGGACAUGGUCCUAACCACGCAGCCAAGUCCUAAGUCAACAGAUCUUCUGUUGAUAUGGAUGCAGUUCACAGACUAAAUGUCGGUCGGGGAAGAUGUAUUCUUCUCAUAAGAUAUAGUCGGACCUCUCCUUAAUGGGAGCUAGCGGAUGAAGUGAUGCAACACUGGAGCCGCUGGGAACUAAUUUGUAUGCGAAAGUAUAUUGAUUAGUUUUGGAGUACUCGUGGUCG
Outline: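 Colonies from six replicate transformations of E. coli BL21(DE3) were pooled and amplicon-sequenced on an Illumina HiSeq 2500. The library placed an intron with all eight P1ex-region nucleotides randomised inside the knt kanamycin-resistance gene on pET-22b(+), and cells grew overnight at 37°C or 30°C on LB agar with or without 25 μg/mL kanamycin (plus 100 μg/mL carbenicillin, 50 μM IPTG, 0.2% rhamnose). Fitness is the DiMSum error-weighted combination of wild-type-normalised replicate fold changes, kanamycin versus none.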

| Sequence | self-splicing fitness (ln) (30 °C) | self-splicing fitness (ln) (37 °C) |
| --- | --- | --- |
| GGAAAGCAAUAUUACGAGCU | -0.199 ± 0.11 | 0.478 ± 0.12 |
| GGGGAGCAAUAUUACGCGAA | -2.75 ± 0.4 | 0.457 ± 0.31 |
| CCAAAGCAAUAUUACGCCGU | -3.25 ± 0.29 | -3.3 ± 0.35 |
| UGGAAGCAAUAUUACGUGCC | -2.57 ± 0.27 | -0.372 ± 0.34 |
| AUUUAGCAAUAUUACGACGC | -1.8 ± 0.19 | -0.352 ± 0.21 |
| ACGGAGCAAUAUUACGCAUG | -2.65 ± 0.2 | -2.28 ± 0.23 |
| GCCCAGCAAUAUUACGUACG | -3.98 ± 0.37 | -1.41 ± 0.18 |
| UCACAGCAAUAUUACGAGCC | -2.07 ± 0.22 | -2.3 ± 0.5 |
| ACUUAGCAAUAUUACGACUA | -1.81 ± 0.17 | -0.513 ± 0.14 |
| GUGAAGCAAUAUUACGUCCG | -0.484 ± 0.15 | -0.103 ± 0.17 |
| AGCGAGCAAUAUUACGAAUU |  | -1.41 ± 0.34 |
| UGCGAGCAAUAUUACGUAGA |  | -0.382 ± 0.22 |
| CUAGAGCAAUAUUACGUUUU | -3.96 ± 0.2 | -3.8 ± 0.25 |
| ACCCAGCAAUAUUACGGCGA | -0.786 ± 0.076 | 0.532 ± 0.096 |
| UUUAAGCAAUAUUACGAGAA | -1.62 ± 0.33 | -0.298 ± 0.28 |
| CAUGAGCAAUAUUACGAACA |  | -2 ± 0.32 |
| AGAGAGCAAUAUUACGGAAU | -3.36 ± 0.32 | -1.79 ± 0.44 |
| UGCCAGCAAUAUUACGUCUU | -2.22 ± 0.18 | -1.86 ± 0.21 |
| AGUCAGCAAUAUUACGAGUA | -2.3 ± 0.13 | -1.31 ± 0.1 |
| GCCGAGCAAUAUUACGGUUC | -4.42 ± 0.3 | -1.79 ± 0.26 |
| AGCUAGCAAUAUUACGCCCC | -0.339 ± 0.24 | -0.157 ± 0.34 |
| AGGAAGCAAUAUUACGAGAG | -3.03 ± 0.14 | -2.29 ± 0.17 |
| GAUCAGCAAUAUUACGCUUA | -0.551 ± 0.12 | 0.0926 ± 0.13 |
| GUGCAGCAAUAUUACGGGGU | -2.79 ± 0.22 | -2.19 ± 0.24 |
| ACGCAGCAAUAUUACGACAC | -1.83 ± 0.13 | -0.767 ± 0.16 |

| Sequence | self-splicing fitness (ln) (30 °C) | self-splicing fitness (ln) (37 °C) |
| --- | --- | --- |
| ACGCAGCAAUAUUACGUUCU | -1.1 ± 0.082 | -0.958 ± 0.09 |
| AAUGAGCAAUAUUACGAAUU | -2.71 ± 0.28 | -2.3 ± 0.39 |
| AUACAGCAAUAUUACGCUCG | -0.288 ± 0.12 | -0.205 ± 0.15 |
| AACAAGCAAUAUUACGUACA | -1.04 ± 0.095 | -0.329 ± 0.11 |
| CCGGAGCAAUAUUACGCGCA | -2.85 ± 0.21 | -2.29 ± 0.22 |
| AUGUAGCAAUAUUACGGUAA | -2.15 ± 0.23 | -1.36 ± 0.17 |
| AGGUAGCAAUAUUACGCCUG | -0.743 ± 0.017 | -0.212 ± 0.035 |
| GACUAGCAAUAUUACGGAAU | -2.12 ± 0.12 | -1.91 ± 0.14 |
| GCCCAGCAAUAUUACGGUGG | -3.21 ± 0.17 | -3.59 ± 0.25 |
| CGGUAGCAAUAUUACGGUUA | -2.23 ± 0.13 | -1.3 ± 0.11 |
| UAAGAGCAAUAUUACGUACU | -2.79 ± 0.25 | -0.993 ± 0.2 |
| CGCAAGCAAUAUUACGCGCG | -3.11 ± 0.12 | -2.51 ± 0.16 |
| GCCUAGCAAUAUUACGUCAA | -2.16 ± 0.22 | -1.8 ± 0.18 |
| GUUCAGCAAUAUUACGCGCU | -2.34 ± 0.18 | -1.13 ± 0.13 |
| UUCCAGCAAUAUUACGUUGG | -3.19 ± 0.21 | -2.53 ± 0.21 |
| GGAGAGCAAUAUUACGACUU | -2.58 ± 0.19 | -0.744 ± 0.16 |
| GAUCAGCAAUAUUACGUUUA | -0.394 ± 0.084 | 0.0451 ± 0.095 |
| GAUGAGCAAUAUUACGCAAC | -2.76 ± 0.21 | -1.85 ± 0.21 |
| UAAGAGCAAUAUUACGCGGU | -3.3 ± 0.3 | -2.15 ± 0.34 |
| GCCCAGCAAUAUUACGGUCA | -0.8 ± 0.071 | -0.326 ± 0.074 |
| GGCAAGCAAUAUUACGAUUG | -3.03 ± 0.19 | -1.64 ± 0.16 |
| UGACAGCAAUAUUACGAAUC | -3.49 ± 0.37 | -1.68 ± 0.31 |
| UAUUAGCAAUAUUACGCUCG | -0.476 ± 0.17 | 0.237 ± 0.2 |
| AGGAAGCAAUAUUACGACAU | -0.63 ± 0.014 | -0.543 ± 0.033 |
| CACUAGCAAUAUUACGACUG | -0.3 ± 0.053 | -0.0818 ± 0.071 |

| Sequence | self-splicing fitness (ln) (30 °C) | self-splicing fitness (ln) (37 °C) |
| --- | --- | --- |
| UCCCAGCAAUAUUACGGGAG | -3.44 ± 0.14 | -2.01 ± 0.11 |
| UUUUAGCAAUAUUACGGGGG | -3.07 ± 0.41 | -2.25 ± 0.31 |
| GUUUAGCAAUAUUACGUACU | -0.0508 ± 0.3 | 0.333 ± 0.33 |
| CAGCAGCAAUAUUACGACUC | -0.922 ± 0.091 | -0.00599 ± 0.14 |
| CAGUAGCAAUAUUACGACAC | -2.36 ± 0.22 | -1.28 ± 0.23 |
| GUCGAGCAAUAUUACGUUUA | -2.37 ± 0.15 | -1.87 ± 0.15 |
| AACAAGCAAUAUUACGGGAA | -1.57 ± 0.097 | -1.86 ± 0.13 |
| GCGCAGCAAUAUUACGCCUA | -0.46 ± 0.24 | 0.407 ± 0.16 |
| CUGGAGCAAUAUUACGAGGC | -2.02 ± 0.4 | -0.672 ± 0.47 |
| UCGAAGCAAUAUUACGCGCU | -2.18 ± 0.2 | -0.209 ± 0.24 |
| CAAGAGCAAUAUUACGCUAC | -2.4 ± 0.26 | -1.66 ± 0.38 |
| ACUGAGCAAUAUUACGACGG | -1.08 ± 0.1 | -0.161 ± 0.13 |
| GUGGAGCAAUAUUACGUGAG | -2.1 ± 0.19 | -2.39 ± 0.21 |
| GCCGAGCAAUAUUACGAGAG | -3.14 ± 0.3 | -0.44 ± 0.19 |
| GCUAAGCAAUAUUACGACGU | -0.0363 ± 0.17 | 0.155 ± 0.19 |
| GUGCAGCAAUAUUACGAUAU | -0.385 ± 0.091 | -0.244 ± 0.12 |
| UGUGAGCAAUAUUACGGCAU | -3.25 ± 0.28 | -1.53 ± 0.15 |
| CGUUAGCAAUAUUACGCGUG | -1.3 ± 0.099 | -1.36 ± 0.089 |
| ACUUAGCAAUAUUACGCCCA | -1.29 ± 0.21 | -0.528 ± 0.22 |
| UAUAAGCAAUAUUACGUGCG | -0.452 ± 0.11 | -0.00615 ± 0.17 |
| GCCAAGCAAUAUUACGCAAC | -1.98 ± 0.13 | -1.32 ± 0.16 |
| CCAAAGCAAUAUUACGGUGG | -4.1 ± 0.19 | -1.76 ± 0.16 |
| AACUAGCAAUAUUACGUGGC | -3.72 ± 0.25 | -1.92 ± 0.17 |
| GGCAAGCAAUAUUACGGCCU | -2.74 ± 0.18 | 0.111 ± 0.23 |
| AUGGAGCAAUAUUACGUAUG | -4.28 ± 0.46 | -3.19 ± 0.37 |
